According to patent US20120171240A1 (UNIVERSITY OF LOUISVILLE RESEARCH FOUNDATION, published 2012):

Legend:
human CD40 receptor = human CD40 receptor (human, UniProt P25942 21-277); experiment: cell-based or functional assay
[1] = biological target: 4-1BB receptor on mouse T cells (mouse) (UniProt P20334); experiment: cell-based or functional assay
Sequence of 4-1BB receptor on mouse T cells (mouse) (P20334 24-256): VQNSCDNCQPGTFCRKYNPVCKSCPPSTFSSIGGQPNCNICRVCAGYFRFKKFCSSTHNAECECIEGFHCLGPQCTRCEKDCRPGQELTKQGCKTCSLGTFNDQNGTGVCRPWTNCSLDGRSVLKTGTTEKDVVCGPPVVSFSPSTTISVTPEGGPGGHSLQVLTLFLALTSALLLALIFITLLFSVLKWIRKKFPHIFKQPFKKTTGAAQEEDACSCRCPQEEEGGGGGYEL

Sequence of human CD40 receptor (P25942 21-277): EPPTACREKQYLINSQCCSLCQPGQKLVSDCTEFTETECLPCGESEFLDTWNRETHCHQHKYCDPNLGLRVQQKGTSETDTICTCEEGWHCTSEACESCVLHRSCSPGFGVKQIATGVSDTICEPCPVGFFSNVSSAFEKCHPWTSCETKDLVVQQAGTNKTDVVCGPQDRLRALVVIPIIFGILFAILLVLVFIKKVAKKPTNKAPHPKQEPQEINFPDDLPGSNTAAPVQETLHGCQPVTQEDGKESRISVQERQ

Work on “commercially available trimeric recombinant human CD40L (rhsCD40L) (from UniProt P29965 116-261) (ligand)” yielded an iNOS production, Western blot, IFN-γ primed CD40KO-human CD40 macrophages (human CD40 receptor) of 6 fold.

CSA-4-1BBL fusion protein (ligand) gave a proliferation of CFSE-labeled CD4+CD25- (SP) T cells, percent dividing [1] of 60% and a proliferation of SP T cells in co-culture with CD4+CD25+ (DP) Treg cells, percent dividing [1] of 34%.

B1: CSA-hCD40L (fusion of core streptavidin and the extracellular domain of human CD40L) (ligand)
chain: RSHHHHHHITGTWYNQLGSTFIVTAGADGALTGTYESAVGNAESRYVLTGRYDSAPATDGSGTALGWTVAWKNNYRNAHSATTWSGQYVGGAEARINTQWLLTSGATEANAWKSTLVGHDTFTKVKPSAASSEFLDKIEDERNLHEDFVFMKTIQRCNTGERSLSLLNCEEIKSQFEGFVKDIMLNKEETKKENSFEMQKGDQNPQIAAHVISEASSKTTSVLQWAEKGYYTMSNNLVTLENGKQLTVKRQGLYYIYAQVTFCSNREASSQAPFIASLCLKSPGRFERILLRAANTHSSAKPCGQQSIHLGGVFELQPGASVFVNVTDPSQVSHGTGFTSFGLLKL
B1 was tested, and the “IL-6 mRNA, RNAse protection assay, murine CD40KO macrophage line expressing human CD40” value (human CD40 receptor) was 2.8 fold, the “human IL-10 production (printed so; summed up as IL-1β) by human monocytes, ELISA, 18 h” value (human CD40 receptor) was 5 fold and the “iNOS production, Western blot, IFN-γ primed CD40KO-human CD40 macrophages” value (human CD40 receptor) was 9 fold.
